Measured values taken from patent publication US20160145657A1, “Methods and Materials for Producing 7-Carbon Chemicals via a C9 Route” (INVISTA North America S.á.r.l., priority 2014, published 2016).

What was measured:
Format in all cases: biochemical
[1] = carboxylate reductase activity, pimelate to pimelate semialdehyde, NADPH consumption at 340 nm; conditions: purified enzyme enhanced by sfp gene product, 2 mM pimelate, pH 7.5, room temperature, 20 min; FIG. 8
Experimental: A nucleotide sequence encoding a HIS-tag was added to the nucleic acid sequences from Segniliparus rugosus and Segniliparus rotundus that encode the carboxylate reductases of SEQ ID NOs: 4 (EFV11917.1) and 6 (ADG98140.1), respectively (see FIG. 6), such that N-terminal HIS tagged carboxylate reductases could be produced. Each of the modified genes was cloned into a pET Duet expression vector along with a sfp gene encoding a HIS-tagged phosphopantetheine transferase from Bacillus subtilis, both under the T7 promoter. Each expression vector was transformed into a BL21[DE3] E. coli host and the resulting recombinant E. coli strains were cultivated at 37° C. in a 250 mL shake flask culture containing 50 mL LB media and antibiotic selection pressure, with shaking at 230 rpm. Each culture was induced overnight at 37° C. using an auto-induction media.
The pellet from each induced shake flask culture was harvested via centrifugation. Each pellet was resuspended and lysed via sonication, and the cell debris was separated from the supernatant via centrifugation. […]
Enzyme activity assays (i.e., from pimelate to pimelate semialdehyde) were performed in triplicate in a buffer composed of a final concentration of 50 mM HEPES buffer (pH=7.5), 2 mM pimelate, 10 mM MgCl2, 1 mM ATP and 1 mM NADPH. […] The consumption of NADPH was monitored by absorbance at 340 nm. […]

[2] = carboxylate reductase activity, N7-acetyl-7-aminoheptanoate to N7-acetyl-7-aminoheptanal, NADPH consumption at 340 nm; conditions: purified enzyme enhanced by sfp gene product, 2 mM N7-acetyl-7-aminoheptanoate, pH 7.5, room temperature, 20 min; FIG. 10
Experimental: The activity of each of the N-terminal His-tagged carboxylate reductases of SEQ ID NOs: 3, 5, and 6 (see Examples 2 and 3, and FIG. 6) for converting N7-acetyl-7-aminoheptanoate to N7-acetyl-7-aminoheptanal was assayed in triplicate in a buffer composed of a final concentration of 50 mM HEPES buffer (pH=7.5), 2 mM N7-acetyl-7-aminoheptanoate, 10 mM MgCl2, 1 mM ATP, and 1 mM NADPH. The assays were initiated by adding purified carboxylate reductase and phosphopantetheine transferase or the empty vector control to the assay buffer containing the N7-acetyl-7-aminoheptanoate then incubated at room temperature for 20 min. The consumption of NADPH was monitored by absorbance at 340 nm.

[3] = carboxylate reductase activity, pimelate semialdehyde to heptanedial, NADPH consumption at 340 nm; conditions: purified enzyme enhanced by sfp gene product, 2 mM pimelate semialdehyde, pH 7.5, room temperature, 20 min; FIG. 11
Experimental: The N-terminal His-tagged carboxylate reductase of SEQ ID NO: 6 (see Example 3 and FIG. 6) was assayed using pimelate semialdehyde as substrate. The enzyme activity assay was performed in triplicate in a buffer composed of a final concentration of 50 mM HEPES buffer (pH=7.5), 2 mM pimelate semialdehyde, 10 mM MgCl2, 1 mM ATP and 1 mM NADPH. The enzyme activity assay reaction was initiated by adding purified carboxylate reductase and phosphopantetheine transferase or the empty vector control to the assay buffer containing the pimelate semialdehyde and then incubated at room temperature for 20 min. The consumption of NADPH was monitored by absorbance at 340 nm.

B1: SEQ ID NO: 6: Segniliparus rotundus carboxylate reductase, Genbank Accession No. ADG98140.1 (protein)
chain: MTQSHTQGPQASAAHSRLARRAAELLATDPQAAATLPDPEVVRQATRPGLRLAERVDAILSGYADRPALGQRSFQTVKDPITGRSSVELLPTFDTITYRELRERATAIASDLAHHPQAPAKPGDFLASIGFISVDYVAIDIAGVFAGLTAVPLQTGATLATLTAITAETAPTLFAASIEHLPTAVDAVLATPSVRRLLVFDYRAGSDEDREAVEAAKRKIADAGSSVLVDVLDEVIARGKSAPKAPLPPATDAGDDSLSLLIYTSGSTGTPKGAMYPERNVAHFWGGVWAAAFDEDAAPPVPAINITFLPLSHVASRLSLMPTLARGGLMHFVAKSDLSTLFEDLKLARPTNLFLVPRVVEMLYQHYQSELDRRGVQDGTREAEAVKDDLRTGLLGGRILTAGFGSAPLSAELAGFIESLLQIHLVDGYGSTEAGPVWRDGYLVKPPVTDYKLIDVPELGYFSTDSPHPRGELAIKTQTILPGYYKRPETTAEVFDEDGFYLTGDVVAQIGPEQFAYVDRRKNVLKLSQGEFVTLAKLEAAYSSSPLVRQLFVYGSSERSYLLAVIVPTPDALKKFGVGEAAKAALGESLQKIARDEGLQSYEVPRDFIIETDPFTVENGLLSDARKSLRPKLKEHYGERLEAMYKELADGQANELRDIRRGVQQRPTLETVRRAAAAMLGASAAEIKPDAHFTDLGGDSLSALTFSNFLHDLFEVDVPVGVIVSAANTLGSVAEHIDAQLAGGRARPTFATVHGKGSTTIKASDLTLDKFIDEQTLEAAKHLPKPADPPRTVLLTGANGWLGRFLALEWLERLAPAGGKLITIVRGKDAAQAKARLDAAYESGDPKLAGHYQDLAATTLEVLAGDFSEPRLGLDEATWNRLADEVDFISHPGALVNHVLPYNQLFGPNVAGVAEIIKLAITTRIKPVTYLSTVAVAAGVEPSALDEDGDIRTVSAERSVDEGYANGYGNSKWGGEVLLREAHDRTGLPVRVFRSDMILAHQKYTGQVNATDQFTRLVQSLLATGLAPKSFYELDAQGNRQRAHYDGIPVDFTAESITTLGGDGLEGYRSYNVFNPHRDGVGLDEFVDWLIEAGHPITRIDDYDQWLSRFETSLRGLPESKRQASVLPLLHAFARPGPAVDGSPFRNTVFRTDVQKAKIGAEHDIPHLGKALVLKYADDIKQLGLL
acceptance of pimelate as substrate (NADPH consumption) against the empty vector control [1]: accepted pimelate as substrate | acceptance of N7-acetyl-7-aminoheptanoate as substrate (NADPH consumption) against the empty vector control [2]: accepted N7-acetyl-7-aminoheptanoate as substrate | acceptance of pimelate semialdehyde as substrate (NADPH consumption) against the empty vector control [3]: accepted pimelate semialdehyde as substrate
